From patent US20240409935

T1: endogenous PACT, O75569
T1 chain: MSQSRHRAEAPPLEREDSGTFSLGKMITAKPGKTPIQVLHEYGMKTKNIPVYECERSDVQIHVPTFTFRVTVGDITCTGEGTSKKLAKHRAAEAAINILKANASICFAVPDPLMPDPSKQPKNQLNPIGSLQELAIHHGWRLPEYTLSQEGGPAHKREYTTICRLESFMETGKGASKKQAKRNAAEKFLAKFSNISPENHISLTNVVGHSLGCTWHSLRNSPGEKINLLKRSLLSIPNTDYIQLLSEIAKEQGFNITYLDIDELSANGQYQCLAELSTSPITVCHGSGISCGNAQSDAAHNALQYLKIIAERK

T2: GFP-PACT, O75569
T2 chain: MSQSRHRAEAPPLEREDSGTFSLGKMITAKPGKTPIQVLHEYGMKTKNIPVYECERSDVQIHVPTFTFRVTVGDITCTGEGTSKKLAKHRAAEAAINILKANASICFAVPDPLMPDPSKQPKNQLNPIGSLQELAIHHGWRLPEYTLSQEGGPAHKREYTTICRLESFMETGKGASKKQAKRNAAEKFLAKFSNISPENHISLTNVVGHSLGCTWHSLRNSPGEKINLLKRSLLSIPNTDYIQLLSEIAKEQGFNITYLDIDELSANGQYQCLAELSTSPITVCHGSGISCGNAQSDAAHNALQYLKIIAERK


Experiments:
[1] = target: T1, endogenous PACT, O75569
[2] = target: T2, GFP-PACT, O75569

Row | Protein | PKR phosphorylation [1] | PKR phosphorylation [2]
1 | FLAG-PKR (protein) MAGDLSAGFFMEELNTYRQKQGVVLKYQELPNSGPPHDRRFTFQVIIDGREFPEGEGRSKKEAKNAAAKLAVEILNKEKKAVSPLLLTTTNSSEGLSMGNYIGLINRIAQKKRLTVNYEQCASGVHGPEGFHYKCKMGQKEYSIGTGSTKQEAKQLAAKLAYLQILSEETSVKSDYLSSGSFATTCESQSNSLVTSTLASESSSEGDFSADTSEINSNSDSLNSSSLLMNGLRNNQRKAKRSLAPRFDLPDMKETKYTVDKRFGMDFKEIELIGSGGFGQVFKAKHRIDGKTYVIKRVKYNNEKAEREVKALAKLDHVNIVHYNGCWDGFDYDPETSDDSLESSDYDPENSKNSSRSKTKCLFIQMEFCDKGTLEQWIEKRRGEKLDKVLALELFEQITKGVDYIHSKKLIHRDLKPSNIFLVDTKQVKIGDFGLVTSLKNDGKRTRSKGTLRYMSPEQISSQDYGKEVDLYALGLILAELLHVCDTAFETSKFFTDLRDGIISDIFDKKEKTLLQKLLSKKPEDRPNTSEILRTLTVWKKSPEKNERHTC | increased PKR phosphorylation under the same conditions | –
2 | endogenous PKR (protein) AGDLSAGFFMEELNTYRQKQGVVLKYQELPNSGPPHDRRFTFQVIIDGREFPEGEGRSKKEAKNAAAKLAVEILNKEKKAVSPLLLTTTNSSEGLSMGNYIGLINRIAQKKRLTVNYEQCASGVHGPEGFHYKCKMGQKEYSIGTGSTKQEAKQLAAKLAYLQILSEETSVKSDYLSSGSFATTCESQSNSLVTSTLASESSSEGDFSADTSEINSNSDSLNSSSLLMNGLRNNQRKAKRSLAPRFDLPDMKETKYTVDKRFGMDFKEIELIGSGGFGQVFKAKHRIDGKTYVIKRVKYNNEKAEREVKALAKLDHVNIVHYNGCWDGFDYDPETSDDSLESSDYDPENSKNSSRSKTKCLFIQMEFCDKGTLEQWIEKRRGEKLDKVLALELFEQITKGVDYIHSKKLIHRDLKPSNIFLVDTKQVKIGDFGLVTSLKNDGKRTRSKGTLRYMSPEQISSQDYGKEVDLYALGLILAELLHVCDTAFETSKFFTDLRDGIISDIFDKKEKTLLQKLLSKKPEDRPNTSEILRTLTVWKKSPEKNERHTC | – | this was accompanied by an increase in PKR phosphorylation during lysosomal damage
